Assay results published in US20250066490A1, “ANTI-CD70 ANTIBODIES, CONJUGATES THEREOF AND METHODS OF USING THE SAME” (ProfoundBio US Co., priority 2021, published 2025).

How the values were obtained:
Caki-1 cells = test: Internalization by FACS immune-fluorescence staining, Caki-1; assay type: cell-based, human
Experimental: Briefly, 2×10^5 cells were harvested from a tissue culture flask by treatment with 0.25% Trypsin/EDTA and then incubated with 10 μg/ml of the lead antibodies or control antibodies in FACS buffer (1×PBS with 0.1% BSA) for 30 mins at 4° C. The cells were washed at 4° C. to remove unbound antibodies and kept on ice or shifted to 37° C. At the set time points (0 h, 4 h, 24 h), cells were incubated with PE-conjugated anti human Fc (Abcam, Ab98596) for 30 mins at 4° C. and then analyzed by flow cytometry. The internalization ratio was calculated by subtracting the 37° C. MFI from the 4° C. MFI, and then compared with 4° C. MFI.
Four cell lines ([…]), Caki-1, Raji, MCF-7) were utilized in the internalization assay. Target (CD70) copy numbers were determined via the QIFIKIT (DAKO, K0078). Briefly, cells were labeled with a primary mouse monoclonal antibody against CD70. Cells, Set-up beads, Calibration beads (from the kit) were then labeled in parallel with a fluorescein-conjugated anti-mouse secondary antibody. The fluorescence is correlated with the number of bound primary antibody molecules on the cells and on the beads. Samples were subsequently analyzed on the flow cytometer and copy number determined based on the calibration curve (Table 11). For internalization assay, 3×10^5 cells were incubated at 4° C. for 30 min with 10 µg/ml 2E7 in FACS buffer (1×PBS containing 0.1% BSA). Cells were washed at 4° C. to remove unbound material and kept on ice or shifted to 37° C. for different lengths of time. At progressive timepoints ([…], 0.5, 1, 2, 3, 4 hr) cells were stained with PE-conjugated anti-human Fc for 30 min at 4° C. and analyzed by flow cytometry. Internalization rate were calculated by subtracting the mean fluorescence intensity (MFI) of cell surface-bound antibody at 37° C. at each time point from the MFI of cell surface-bound antibody at 4° C. at time 0, then divided by the MFI of the cell surface-bound antibody at 4° C. at time 0.

cyno CD70 ECD = test: Biolayer interferometry (BLI), cyno CD70; assay type: binding
[1] = test system: 786-O, Caki-1, U251 and DBTRG-05MG cells; test: Antibody binding by flow cytometry, statements across all four tumor cell lines; parameters: species or system human; details: range over the four cell lines
Experimental: The lead antibodies were tested for binding to renal carcinoma cells and glioblastoma cells expressing CD70 on the cell surface by flow cytometry. Cell lines 786-O (ATCC® CRL-1932™, provided by COBIOER), Caki-1 (ATCC® HTB-46™, provided by COBIOER), U251 and DBTRG-05MG (ATCC® CRL-2020™, provided by COBIOER) were each tested for antibody binding. 786-O cells were cultured with RPMI 1640 medium (Gibco, Cat #11875093) containing of 10% FBS (Gibco, Cat #10099141) while Caki-1 cells were cultured with McCoy's 5a Modified medium (Gibco, Cat #16600082) containing 10% FBS. U251 cells were cultured with MEM medium containing of 10% FBS and 1% NEAA+1 mM sodium pyruvate. DBTRG-05MG cells were cultured with DMEM medium (Gibco, Cat #C11995500BT) containing of 10% FBS. Each of the lead antibodies and the controls were incubated for 30 mins with the different cell lines (3×10^5 cells per well) in 0.2 ml FACS buffer (1×PBS with 0.1% BSA) at 4° C. Then, the cells were pelleted, washed, and incubated at 4° C. for 30 mins with 100 μl of 1:200 diluted PE-conjugated anti human Fc (Abcam, Ab98596) in FACS buffer. The cells were pelleted again, washed with PBS, resuspended in FACS buffer and analyzed by flow cytometer (Beckman, CytoFLEX).

EC50 relative to that of antibody 69A7 [1]: 1.8˜3.5 times
B1: 2E7: anti-CD70 antibody clone, VH SEQ 7 and VL SEQ 8; tested as scFv and full human IgG1/kappa (antibody, V domains shown)
VH: QVQLQESGPGLVKPSETLSLTCTVSGGSVSSDYYYWSWIRQPPGKGLEWLGYIYYSGSTNYNPSLKSRVTISVDTSKNQFSLKLRSVTTADTAVYYCARGDGDFLGVCFDYWGQGTLVTVSS
VL: EIVLTQSPATLSLSPGERATLSCRASQSVSSYLAWYQQKPGQAPRLLIFDASNRATGIPARFSGSGSGTDFTLTISSLEPEDFAVYYCQQRSNWPLTFGGGTKVEIK
modifications: Synthetic 2E7 VH amino acid sequence; Synthetic 2E7 VL amino acid sequence
notes: tested as scFv and full human IgG1/kappa
absolute amount of antibody internalized into cell vs parent antibody 69A7 (Caki-1 cells; Caki-1, based on the cell binding affinity): higher absolute amount of antibody internalized into cell than the parent antibody 69A7 | internalization, time course (Caki-1 cells; Caki-1, up to 4 hr, FIG. 13): rapid internalization | Response (cyno CD70 ECD; CYNO CD70 3.13 nM): 0.1275 | Response (cyno CD70 ECD; CYNO CD70 6.25 nM): 0.204 | Response (cyno CD70 ECD; CYNO CD70 12.5 nM): 0.2927 | Response (cyno CD70 ECD; CYNO CD70 25 nM): 0.3702 | Response (cyno CD70 ECD; CYNO CD70 50 nM): 0.4136 | Response (cyno CD70 ECD; CYNO CD70 100 nM): 0.4825 | Response (cyno CD70 ECD; CYNO CD70 200 nM): 0.4991 | ka (cyno CD70 ECD; CYNO CD70, multiple dilutions 200-3.13 nM, global fit): 617800 M⁻¹ s⁻¹
